T1: human VTCN1 expressed on cells (293-VTCN1 cells; SKBR3, MX-1 and ZR-75-1 cells that express it naturally) (human, UniProt Q7Z7D3 25-282)
T1 construct: The cDNA was bought from Origene
T1 sequence: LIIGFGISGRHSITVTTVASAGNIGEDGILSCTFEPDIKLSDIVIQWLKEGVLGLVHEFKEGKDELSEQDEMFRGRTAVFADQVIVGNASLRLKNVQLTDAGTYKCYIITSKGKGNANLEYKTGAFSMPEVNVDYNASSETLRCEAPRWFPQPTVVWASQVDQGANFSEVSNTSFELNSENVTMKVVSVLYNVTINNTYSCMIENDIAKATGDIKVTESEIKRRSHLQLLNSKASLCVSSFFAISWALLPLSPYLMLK

B1: 7C9 (antibody, V domains shown)
VH: QIQLQESGPGLVQPSQSLSITCTVSGFSLTSYGVQWVRQSPGKGLEWLGVIWSSGSTDYNAAFISRLSISKDNSKSQVFFKMNSLQADDTAIYYCARDITTIVEGFAYWGQGTLVTVSA
VL: NIVMTQSPKSMSMSVGERVTLRCKASENVNTYVSWYQQKPEQSPKLLIYGASNRYTGVPDRFTGSGSATDFTLTISSVQAEDLADYHCGQSYSYPFTFGSGTKLEIK
notes: Recombinant mouse antibody made in CHO cells
B2: 1F8 (antibody, V domains shown)
VH: B1 VH with I2M, Q5K, S40F, P41S, A87P, I92M
VL: IIVMTQSPKSMSMSVGERVTLSCKASENVGTYVSWYQQKPEQSPKLLIYGASNRYTGVPDRFTGSGSATDFTLTISSVQAEDLADYHCGQSYSYPFTFGSGTKLEIKR
notes: Recombinant mouse antibody made in CHO cells; also called 1F8C6
B3: 1C3 (antibody, V domains shown)
VH: B1 VH with E6Q, S56N, S68T, S70T, V78I
VL: B1 VL with R22S, N30G, S91T
notes: as for B1
B4: 7D9 (antibody, V domains shown)
VH: B1 VH with Q5K, S54G, G110A
VL: B1 VL with R22S, N30G, S91T
notes: as for B1
B5: 9H12 (antibody, V domains shown)
VH: B1 VH with S54G, Y108H
VL: B1 VL with R22S, N28K, N30G
notes: as for B1
B6: 7G9 (antibody, V domains shown)
VH: B1 VH with I2V, L4M, E46Q, F63V, N73T, A87P, A119S
VL: B1 VL with N1I, R22S, N30G
notes: as for B1
B7: 4B9 (antibody, V domains shown)
VH: B1 VH with Q1E, I2V, Q35H, M82I, N83H, G110A
VL: B1 VL with R22I, N30G, S91T
notes: as for B1
B8: 1A2 (antibody, V domains shown)
VH: B1 VH with I2V, E6Q, Q35H, S54G
VL: B1 VL with R22S, N30G, L83V, A84T, S91T
notes: as for B1
B9: 8G3 (antibody, V domains shown)
VH: B1 VH with Q35H, K75R, A87P, G110A
VL: B1 VL with I2V, R22I, N30G, S91T, T97A
notes: as for B1
B10: 9H7 (antibody, V domains shown)
VH: QVQLQESGPELVKPGASVKLSCKASGYSFTDYTMHWVKQSPGQGLEWIGWIYPGSGNTMYNDKFKGEATMTADKSSSTTYMQLSSLTSEDSAVYFCARGGDSIITVFPFTYWGQGTLVTVSA
VL: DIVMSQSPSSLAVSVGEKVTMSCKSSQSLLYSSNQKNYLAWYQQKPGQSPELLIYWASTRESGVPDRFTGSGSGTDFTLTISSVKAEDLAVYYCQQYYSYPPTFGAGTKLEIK
notes: as for B1
B11: 3C6 (antibody, V domains shown)
VH: QIQLQESGPELKKPGETVKISCKASGYTFTTTGMQWVQKMPGKGFKWIGWINTHSGEPKYADDFKGRFAFSLETSASTAHLQISNLKNEDTATYFCARTSYWYLDVWGAGTTVTVSS
VL: DIVMTQSQKFMSTSVGDRVSVTCKASQIVGTNIAWYQQKPGQSPKALIYSASYRNSGVPDRFTGSGSGTDFTLTITNVQSEDLAEYFCQQYNSYPLTFGAGTKLEIK
notes: as for B1
B12: 2C2 (antibody, V domains shown)
VH: B11 VH with E6Q, T32A, I48L, H80Y, S84N, F95H, V106I
VL: B11 VL with I28N, I33V, N55C, T76S
notes: as for B1
B13: 7E12 (antibody, V domains shown)
VH: B11 VH with I2V, L4M, Q5K
VL: B11 VL
notes: as for B1

This note sets out measurements from patent publication US20240294644A1 (BLUEFIN BIOMEDICINE, published 2024).

Residue numbers refer to the chain shown, from its start.

The target in the test is T1, human VTCN1 expressed on cells …. Briefly: flow cytometry on live 293-VTCN1 and MX-1 cells, 0.05-10 ug/ml. (Flow cytometry measures light scatter and fluorescence of single cells or particles in a stream.)
Experimental: Antibody concentration was determined by OCTET™ using protein G biosensor. 0.05 μg/ml, 0.1 μg/ml, 0.5 μg/ml, 1 μg/ml, 5 μg/ml, 10 μg/ml antibodies were incubated with live cells for 30 min. on ice, unbound antibodies were washed off, and a conjugated anti-mouse 2nd antibody was added to the wells for 15 min. Cells were washed twice with flow buffer and analyzed using MACSQuant Analyzer 10 flow cytometer (Miltenyi Biotec, Bergisch Gladbach, Germany).
In the case of B1, the binding result is listed as “binds”. With B2, the binding result is given as “binds”. As for B3, the binding result is given as “binds”.

As for B4, the binding result was “binds”. As for B5, the binding result is given as “binds”. As to B6, the binding result was “binds”. For the molecule B7, the binding result is on record as “binds”.

Turning to B8, the binding result is reported as “binds”. For B9, the binding result is “binds”. Consider B10, for which the binding result is “binds”. For the molecule B11, the binding result was “binds”. Consider B12, for which the binding result is “binds”. For B13 the value was “binds”.
